Data set [1] concerns the target retinol-binding protein 4 (RBP4, also printed RPB4) (UniProt P02753 19-201). Kind of data set: electrochemical aptasensor.
Data set [2] deals with human serum albumin (HSA) (Homo sapiens, UniProt P02768 25-609). Kind of data set: electrochemical aptasensor.
human serum albumin (HSA), sequence (P02768 25-609): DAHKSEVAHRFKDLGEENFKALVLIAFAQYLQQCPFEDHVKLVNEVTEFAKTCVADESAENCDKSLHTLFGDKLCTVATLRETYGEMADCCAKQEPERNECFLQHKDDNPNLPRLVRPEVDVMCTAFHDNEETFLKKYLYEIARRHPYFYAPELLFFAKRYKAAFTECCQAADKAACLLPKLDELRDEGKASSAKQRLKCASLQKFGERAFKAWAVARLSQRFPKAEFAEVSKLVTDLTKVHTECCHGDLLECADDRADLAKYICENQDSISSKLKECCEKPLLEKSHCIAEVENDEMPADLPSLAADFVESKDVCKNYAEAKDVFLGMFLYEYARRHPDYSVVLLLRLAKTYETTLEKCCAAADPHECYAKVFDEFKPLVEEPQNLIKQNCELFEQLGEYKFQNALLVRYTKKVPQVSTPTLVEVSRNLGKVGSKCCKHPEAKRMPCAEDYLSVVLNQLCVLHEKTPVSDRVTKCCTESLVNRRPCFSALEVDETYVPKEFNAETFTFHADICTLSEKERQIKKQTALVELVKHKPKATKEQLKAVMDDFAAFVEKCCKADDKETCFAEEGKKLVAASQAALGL

B1: RBP4-binding aptamer (ssDNA)
DNA: ATACCAGCTTATTCAATTACAGTAGTGAGGGGTCCGTCGTGGGGTAGTTGGGTCGTGGAGATAGTAAGTGC
modifications: 5' Amino C6; 3' Thiol C6 SS
As to B1, the binding result in data set [1] is listed as “binds”.

B2: HSA-binding aptamer (ssDNA)
DNA: TGCGGTTGTAGTACTCGTGGCCG
modifications: 5' Amino C6; 3' Thiol C6 SS
In the case of B2, in data set [2], the binding result was “binds”.

The record behind these values is article PMC12403663.
